Source: the supplement of paper PMC10126150
± gives the standard deviation of the averaged measurements.

Each sequence was assayed on ATP (assay: switch fluorescence ratio, 500 uM ATP over buffer (Cy3 cluster intensity, sum of 5 cycles each) (fold (ratio)); higher = stronger signal-on switching upon ATP binding; sequences stand for … in TCGTCGGCAGCGTCAGATGTGTATAAGAGACAGTTTTTTTTTTTTTTTTTTTTTTTTT…TC). Details: aptamer strand: ATP DNA aptamer (quencher-CACCTGGGGGAGTATTGCGGAGGAAGG + anchor), 100 nM annealed; ATP concentration: 500 uM.
Summary of the method: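 Cy3-labelled switching-strand clusters on a modified Illumina MiSeq flow-cell were annealed to 100 nM quencher-labelled ATP aptamer, imaged in selection buffer, then imaged after 15 min with 500 uM ATP at 22 °C. Five buffer/ATP cycles ran, with NaOH stripping and re-annealing between them. The fluorescence ratio is summed target-cycle over summed buffer-cycle Cy3 intensity per cluster, averaged per switch-domain sequence. Clusters outside 100-1000 RFU were excluded.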
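Also: ATP exposure 15 min at 22 °C before imaging.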

First: AAACGATTTC
Second: AAACGCATCT
The switch fluorescence ratio of the first is lower: 1.01 ± 0.019 for the first, 1.1304 ± 0.0008 for the second.

Compared with AAACGCCGAA, AAACGCGACT is higher in switch fluorescence ratio: 0.986 ± 0.062 for the first, 1.31 ± 0.2 for the second.

Going from AAACGGATGC to AAACGGCACG, the switch fluorescence ratio rises from 0.9573 ± 0.0092 to 1.009 ± 0.0032.

Compared with AAACGGCTCT, AAACGGGAG is higher in switch fluorescence ratio: 0.967 ± 0.031 for the first, 1.032 ± 0.0067 for the second.

First: AAACGGGGGC
Second: AAACTACTAC
The switch fluorescence ratio of the first is lower: 1 ± 0.085 for the first, 1.147 ± 0.0017 for the second.

Going from AAACTCGCGC to AAACTCTTGT, the switch fluorescence ratio falls from 1.07 ± 0.012 to 1.01 ± 0.0033.

AAACTCTTTT and AAACTGGGCG are within error of each other in switch fluorescence ratio: 0.978 ± 0.039 for the first, 1.04 ± 0.062 for the second.

AAACTGTTTG and AAACTTGGGT are within error of each other in switch fluorescence ratio: 0.996 ± 0.024 for the first, 1.04 ± 0.024 for the second.

AAACTTGTGA and AAACTTTCTT are within error of each other in switch fluorescence ratio: 1.02 ± 0.024 for the first, 1.03 ± 0.021 for the second.

AAACTTTTAA and AAAGAAACAT are within error of each other in switch fluorescence ratio: 1.01 ± 0.019 for the first, 1.07 ± 0.08 for the second.

First: AAAGAAACGG
Second: AAAGAAGATG
The switch fluorescence ratio of the first is higher: 1.1 ± 0.035 for the first, 0.953 ± 0.045 for the second.

AAAGAATTGG and AAAGACAGTT are within error of each other in switch fluorescence ratio: 0.975 ± 0.045 for the first, 1.01 ± 0.049 for the second.

First: AAAGACGAT
Second: AAAGACGGCA
The switch fluorescence ratio of the first is lower: 1.01 ± 0.017 for the first, 1.53 ± 0.02 for the second.

AAAGAGACAG and AAAGAGCAAT are within error of each other in switch fluorescence ratio: 0.993 ± 0.0046 for the first, 1.79 ± 1.1 for the second.

AAAGAGGAAG and AAAGAGGGAT are within error of each other in switch fluorescence ratio: 0.987 ± 0.02 for the first, 0.986 ± 0.053 for the second.

Going from AAAGAGGGT to AAAGAGTAGA, the switch fluorescence ratio rises from 0.986 ± 0.018 to 1.025 ± 0.0034.

AAAGAGTGTG and AAAGATAACT are within error of each other in switch fluorescence ratio: 0.988 ± 0.037 for the first, 1.024 ± 0.0098 for the second.

Going from AAAGATTAGT to AAAGCGAGTC, the switch fluorescence ratio rises from 0.9713 ± 0.0097 to 1.021 ± 0.01.

AAAGCGGACT and AAAGCGGGGA are the same in switch fluorescence ratio: 1.044 ± 0.0089 for the first, 1.04 ± 0.011 for the second.

AAAGCGTGTT and AAAGCTCGTG are within error of each other in switch fluorescence ratio: 1.02 ± 0.05 for the first, 1 ± 0.015 for the second.

Going from AAAGCTGCGT to AAAGCTTCAT, the switch fluorescence ratio rises from 0.9843 ± 0.0049 to 1.46 ± 0.088.

AAAGCTTTGA and AAAGGAAGG are within error of each other in switch fluorescence ratio: 0.983 ± 0.01 for the first, 0.995 ± 0.013 for the second.

AAAGGAGAGC and AAAGGAGGGA are within error of each other in switch fluorescence ratio: 0.973 ± 0.087 for the first, 1.01 ± 0.035 for the second.

AAAGGAGGGT and AAAGGATATG are within error of each other in switch fluorescence ratio: 0.9994 ± 0.0062 for the first, 0.995 ± 0.018 for the second.

AAAGGATGG and AAAGGATGGT are within error of each other in switch fluorescence ratio: 0.997 ± 0.036 for the first, 0.953 ± 0.022 for the second.

AAAGGCCGTG and AAAGGGATAG are within error of each other in switch fluorescence ratio: 1.0223 ± 0.00097 for the first, 1.01 ± 0.038 for the second.

First: AAAGGGCGGG
Second: AAAGGGCTGG
The switch fluorescence ratio of the first is higher: 1.016 ± 0.0049 for the first, 0.984 ± 0.019 for the second.

AAAGGGGAAA and AAAGGGGCTA are within error of each other in switch fluorescence ratio: 1 ± 0.051 for the first, 0.988 ± 0.02 for the second.

AAAGGGGGCT and AAAGGGGGGG are within error of each other in switch fluorescence ratio: 0.9912 ± 0.0026 for the first, 1.01 ± 0.037 for the second.

AAAGGGGTCA and AAAGGGGTCT are within error of each other in switch fluorescence ratio: 1 ± 0.034 for the first, 1.01 ± 0.031 for the second.

Compared with AAAGGGGTG, AAAGGGGTGG is lower in switch fluorescence ratio: 1.06 ± 0.016 for the first, 0.992 ± 0.043 for the second.

AAAGGGTAGA and AAAGGGTGCG are within error of each other in switch fluorescence ratio: 1.04 ± 0.019 for the first, 1.03 ± 0.017 for the second.

AAAGGGTGTT and AAAGGGTTTT are within error of each other in switch fluorescence ratio: 1.04 ± 0.013 for the first, 1.01 ± 0.022 for the second.

AAAGGTAATA and AAAGGTACGA are within error of each other in switch fluorescence ratio: 1 ± 0.025 for the first, 1.02 ± 0.016 for the second.

Compared with AAAGGTCGAC, AAAGGTGCAA is higher in switch fluorescence ratio: 0.973 ± 0.021 for the first, 1.21 ± 0.2 for the second.

AAAGGTGGGC and AAAGGTGGTA are within error of each other in switch fluorescence ratio: 0.98 ± 0.039 for the first, 1.02 ± 0.066 for the second.

AAAGGTGTAT and AAAGGTTGGT are within error of each other in switch fluorescence ratio: 1.02 ± 0.014 for the first, 1.011 ± 0.0037 for the second.

AAAGGTTTGC and AAAGGTTTGG are within error of each other in switch fluorescence ratio: 1 ± 0.039 for the first, 0.976 ± 0.035 for the second.

AAAGGTTTTC and AAAGTACGCG are within error of each other in switch fluorescence ratio: 0.9804 ± 0.0084 for the first, 0.984 ± 0.046 for the second.

Compared with AAAGTACTGG, AAAGTCACAC is lower in switch fluorescence ratio: 1.19 ± 0.042 for the first, 1.04 ± 0.022 for the second.

AAAGTCATCT and AAAGTCCATA are within error of each other in switch fluorescence ratio: 0.995 ± 0.023 for the first, 1.01 ± 0.026 for the second.

AAAGTCCTAG and AAAGTCGGGC are within error of each other in switch fluorescence ratio: 0.99 ± 0.016 for the first, 0.946 ± 0.059 for the second.

Going from AAAGTCTACA to AAAGTGATGT, the switch fluorescence ratio falls from 1.03 ± 0.024 to 0.969 ± 0.02.

Going from AAAGTGCATC to AAAGTGGGAT, the switch fluorescence ratio rises from 0.992 ± 0.0037 to 1.03 ± 0.019.

First: AAAGTGGTTA
Second: AAAGTGTGC
The switch fluorescence ratio of the first is lower: 1.01 ± 0.025 for the first, 1.07 ± 0.03 for the second.

AAAGTTCAGT and AAAGTTTCCA are within error of each other in switch fluorescence ratio: 0.98958 ± 0.00071 for the first, 0.993 ± 0.025 for the second.

AAAGTTTCGT and AAAGTTTTCG are within error of each other in switch fluorescence ratio: 1.01 ± 0.018 for the first, 0.977 ± 0.026 for the second.

AAATAAAACT and AAATAAACGA are within error of each other in switch fluorescence ratio: 1.1 ± 0.19 for the first, 0.98 ± 0.0072 for the second.

Compared with AAATAAAGGG, AAATAAATAA is lower in switch fluorescence ratio: 0.987 ± 0.032 for the first, 0.944 ± 0.011 for the second.

First: AAATAACCGA
Second: AAATAAGATT
The switch fluorescence ratio of the first is higher: 1.08 ± 0.02 for the first, 1.02 ± 0.018 for the second.
